Assay results as given in publication PMC2150586 (The Journal of Cell Biology, 1999).

Legend:
[1] = target: T1, MBPFar1 (Far1p residues 133–831 fused to maltose binding protein) (S. cerevisiae, UniProt P21268 133-830); experiment: […]
T1 sequence: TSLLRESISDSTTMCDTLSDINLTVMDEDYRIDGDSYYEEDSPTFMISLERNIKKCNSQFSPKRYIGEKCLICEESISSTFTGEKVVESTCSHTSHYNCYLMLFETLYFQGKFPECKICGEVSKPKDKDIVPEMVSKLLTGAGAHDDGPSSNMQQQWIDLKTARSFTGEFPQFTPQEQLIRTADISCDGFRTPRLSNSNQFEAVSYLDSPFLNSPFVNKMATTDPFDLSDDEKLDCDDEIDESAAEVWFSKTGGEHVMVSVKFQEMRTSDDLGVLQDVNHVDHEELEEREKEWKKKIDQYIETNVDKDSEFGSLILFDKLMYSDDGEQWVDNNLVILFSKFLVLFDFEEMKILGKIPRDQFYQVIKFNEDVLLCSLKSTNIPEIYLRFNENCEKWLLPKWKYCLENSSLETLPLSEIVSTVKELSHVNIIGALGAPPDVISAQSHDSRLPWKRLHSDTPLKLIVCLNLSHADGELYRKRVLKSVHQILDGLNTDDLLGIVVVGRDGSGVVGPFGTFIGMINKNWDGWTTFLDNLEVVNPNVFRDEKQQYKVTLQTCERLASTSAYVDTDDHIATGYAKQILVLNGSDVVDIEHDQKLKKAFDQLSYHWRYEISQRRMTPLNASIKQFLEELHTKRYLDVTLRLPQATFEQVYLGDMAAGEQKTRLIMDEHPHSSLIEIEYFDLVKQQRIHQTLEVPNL

[2] = target: T2, Cdc24p fused to the GAL4 DNA binding domain (pAS1Cdc24) (S. cerevisiae, UniProt P11433 1-854); experiment: two-hybrid
T2 sequence: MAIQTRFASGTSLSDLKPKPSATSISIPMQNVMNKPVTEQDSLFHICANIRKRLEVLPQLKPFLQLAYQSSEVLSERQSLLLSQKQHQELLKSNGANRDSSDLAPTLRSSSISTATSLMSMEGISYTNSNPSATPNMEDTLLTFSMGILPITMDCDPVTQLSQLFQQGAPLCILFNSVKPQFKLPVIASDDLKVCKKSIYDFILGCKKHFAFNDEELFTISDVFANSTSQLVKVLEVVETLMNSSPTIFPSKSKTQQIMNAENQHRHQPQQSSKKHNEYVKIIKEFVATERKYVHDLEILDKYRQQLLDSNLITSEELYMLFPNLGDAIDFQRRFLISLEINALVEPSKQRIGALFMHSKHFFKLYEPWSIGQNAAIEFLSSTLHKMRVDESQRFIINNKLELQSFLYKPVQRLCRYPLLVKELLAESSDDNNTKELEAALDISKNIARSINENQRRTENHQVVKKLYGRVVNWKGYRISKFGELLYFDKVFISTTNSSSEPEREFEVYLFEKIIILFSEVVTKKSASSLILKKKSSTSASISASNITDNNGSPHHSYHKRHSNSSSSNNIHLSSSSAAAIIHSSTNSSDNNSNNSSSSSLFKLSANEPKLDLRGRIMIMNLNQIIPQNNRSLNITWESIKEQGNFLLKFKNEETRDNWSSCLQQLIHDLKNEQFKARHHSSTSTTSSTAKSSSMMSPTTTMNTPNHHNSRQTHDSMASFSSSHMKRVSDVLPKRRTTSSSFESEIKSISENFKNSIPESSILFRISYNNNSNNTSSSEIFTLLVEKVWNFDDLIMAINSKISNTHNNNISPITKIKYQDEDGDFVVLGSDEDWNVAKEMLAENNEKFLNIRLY

Binder	binding result [1]	fold increase in LacZ activity with Gγ overexpressed [2]	further fold increase in LacZ activity with Far1p also overexpressed [2]
GSTCdc24 (NH2-terminal 472 amino acids of Cdc24p fused to GST) (domain or fragment) MAIQTRFASGTSLSDLKPKPSATSISIPMQNVMNKPVTEQDSLFHICANIRKRLEVLPQLKPFLQLAYQSSEVLSERQSLLLSQKQHQELLKSNGANRDSSDLAPTLRSSSISTATSLMSMEGISYTNSNPSATPNMEDTLLTFSMGILPITMDCDPVTQLSQLFQQGAPLCILFNSVKPQFKLPVIASDDLKVCKKSIYDFILGCKKHFAFNDEELFTISDVFANSTSQLVKVLEVVETLMNSSPTIFPSKSKTQQIMNAENQHRHQPQQSSKKHNEYVKIIKEFVATERKYVHDLEILDKYRQQLLDSNLITSEELYMLFPNLGDAIDFQRRFLISLEINALVEPSKQRIGALFMHSKHFFKLYEPWSIGQNAAIEFLSSTLHKMRVDESQRFIINNKLELQSFLYKPVQRLCRYPLLVKELLAESSDDNNTKELEAALDISKNIARSINENQRRTENHQVVKKLYGRVV	binds	–	–
Ste4p (Gβ) fused to the GAL4 activation domain (pGAD424Ste4) (natural protein) MAAHQMDSITYSNNVTQQYIQPQSLQDISAVEDEIQNKIEAARQESKQLHAQINKAKHKIQDASLFQMANKVTSLTKNKINLKPNIVLKGHNNKISDFRWSRDSKRILSASQDGFMLIWDSASGLKQNAIPLDSQWVLSCAISPSSTLVASAGLNNNCTIYRVSKENRVAQNVASIFKGHTCYISDIEFTDNAHILTASGDMTCALWDIPKAKRVREYSDHLGDVLALAIPEEPNSENSSNTFASCGSDGYTYIWDSRSPSAVQSFYVNDSDINALRFFKDGMSIVAGSDNGAINMYDLRSDCSIATFSLFRGYEERTPTPTYMAANMEYNTAQSPQTLKSTSSSYLDNQGVVSLDFSASGRLMYSCYTDIGCVVWDVLKGEIVGKLEGHGGRVTGVRSSPDGLAVCTGSWDSTMKIWSPGYQ	–	~2 fold	~3.5 fold
